Experimental data reported in paper PMC11297306 (Nature Communications, 2024).

Biological target: VLDLRLBD-Fc fusion protein (human, UniProt P98155-1 31-355)
Assay: BLI; […] (2.6 µM) […]; kinetic buffer with 2 mM CaCl2
Conditions: both partners purified

B1: receptor-associated protein (RAP) (natural protein, human, UniProt P30533 35-353, looked up)
chain: YSREKNQPKPSPKRESGEEFRMEKLNQLWEKAQRLHLPPVRLAELHADLKIQERDELAWKKLKLDGLDEDGEKEARLIRNLNVILAKYGLDGKKDARQVTSNSLSGTQEDGLDDPRLEKLWHKAKTSGKFSGEELDKLWREFLHHKEKVHEYNVLLETLSRTEEIHENVISPSDLSDIKGSVLHSRHTELKEKLRSINQGLDRLRRVSHQGYSTEAEFEEPRVIDLWDLAQSANLTDKELEAFREELKHFEAKIEKHNHYQKQLEIAHEKLRHAESVGDGERVSRSREKHALLEGRTKELGYTVKKHLQDLSGRISRAR
B1: binds.
